Data set [1] addresses KHC(1–891)-3xmCit. In words: stepwise photobleaching of single molecules (TIRF microscopy); lysates of COS cells expressing 3xmCit-tagged constructs, in flow chambers with Cy5-microtubules, with AMPPNP; number of bleaching steps of 160–200 spots for each construct.
For data set [2], the target named is mCit-KHC. In words: FRET or BRET; FRET stoichiometry (average FRET efficiency, E AVE) in live COS cells coexpressing mCit- and mCFP-tagged motors; Kinesin-1 with HA-KLC coexpressed.
Data set [3] deals with the molecule itself. In words: cross-linking; cytosolic extracts of rat brain and detergent extracts of murine cortical neurons, with or without DMP; SDS-PAGE, immunoblot with anti-KIF1A. In general terms: A western blot detects proteins with antibodies after separation by electrophoresis.

From publication PMC2661964, “Mammalian Kinesin-3 Motors Are Dimeric In Vivo and Move by Processive Motility upon Release of Autoinhibition” (PLoS Biology, 2009) come the findings set out here.

Take KHC(1–891)-3xmCit (domain or fragment): the stoichiometry N in data set [1] was 2.
With mCFP-KHC (natural protein), the average FRET efficiency (E AVE), motor-to-motor in data set [2] is 2.1%.

B1: endogenous KIF1A in rat brain cytosol (natural protein, rat (endogenous in rat brain), UniProt F1M4A4 1-1707, looked up)
chain: MAGASVKVAVRVRPFNSREMSRDSKCIIQMSGSTTTIVNPKQPKETPKSFSFDYSYWSHTSPEDINYASQKQVYRDIGEEMLQHAFEGYNVCIFAYGQTGAGKSYTMMGKQEKDQQGIIPQLCEDLFSRINDTTNDNMSYSVEVSYMEIYCERVRDLLNPKNKGNLRVREHPLLGPYVEDLSKLAVTSYNDIQDLMDSGNKARTVAATNMNETSSRSHAVFNIIFTQKRHDAETNITTEKVSKISLVDLAGSERADSTGAKGTRLKEGANINKSLTTLGKVISALAEMDSGPNKNKKKKKTDFIPYRDSVLTWLLRENLGGNSRTAMVAALSPADINYDETLSTLRYADRAKQIRCNAIINEDPNNKLIRELKDEVTRLRDLLYAQGLGDITDTNTVPGGPKLTNALVGMSPSSSLSALSSRAASVSSLHERILFAPGSEEAIERLKETEKIIAELNETWEEKLRRTEAIRMEREALLAEMGVAMREDGGTLGVFSPKKTPHLVNLNEDPLMSECLLYYIKDGVTRVGREDAERRQDIVLSGHFIKEEHCIFRSDSRGGGEAVVTLEPCEGADTYVNGKKVTEPSILRSGNRIIMGKSHVFRFNHPEQARQERERTPCAETPAEPVDWAFAQRELLEKQGIDMKQEMEQRLQELEDQYRREREEATYLLEQQRLDYESKLEALQKQMDSRYYPEVNEEEEEPEDEVQWTERECELALWAFRKWKWYQFTSLRDLLWGNAIFLKEANAISVELKKKVQFQFVLLTDTLYSPLPPDLLPPEAAKDRETRPFPRTIVAVEVQDQKNGATHYWTLEKLRQRLDLMREMYDRAAEVPSSVVEDCDNVVTGGDPFYDRFPWFRLVGRAFVYLSNLLYPVPLVHRVAIVSEKGEVKGFLRVAVQAISADEEAPDYGSGVRQSGTAKISFDDQHFEKFQSESCPVVGMSRSGTSQEELRIVEGQGQGADAGPSADEVNNNTCSAVPPEGLLDSPEKAALDGPLDTALDHLRLGSTFTFRVTVLQASSISAEYADIFCQFNFIHRHDEAFSTEPLKNTGRGPPLGFYHVQNIAVEVTKSFIEYIKSQPIVFEVFGHYQQHPFPPLCKDVLSPLRPSRRHFPRVMPLSKPVPATKLSTMTRPSPGPCHCKYDLLVYFEICELEANGDYIPAVVDHRGGMPCMGTFLLHQGIQRRITVTLLHETGSHIRWKEVRELVVGRIRNTPETDEALIDPNILSLNILSSGYVHPAQDDRQFLDSDIPRTFYQFEAAWDSSMHNSLLLNRVTPYREKIYMTLSAYIEMENCTQPAVITKDFCMVFYSRDAKLPASRSIRNLFGSGSLRATEGNRVTGVYELSLCHVADAGSPGMQRRRRRVLDTSVAYVRGEENLAGWRPRSDSLILDHQWELEKLSLLQEVEKTRHYLLLREKLETTQRPVPEVLSPASSEDSESRSSSGASSPLSAEGQPSPLEVPNERQRELAVKCLRLLMHTFNREYTHSHVCISASESKLSEMSVTLMRDPSMSPLGAATLTPSSTCPSLIEGRYGATDVRTPQPCSRPASPEPELLPELDSKKTPSPVRATETEKEPQRLLVPDIQEIRVSPIVSKKGYLHFLEPHTAGWAKRFVVVRRPYAYMYNSDKDTVERFVLNLSTAQVEYSEDQQAMLKTPNTFAVCTEHRGILLQANSDKDMHDWLYAFNPLLAGTIRSKLSRRRSAQMRV
notes: KIF1A, endogenous protein of rat brain cytosol; source: endogenous, cytosolic extract of rat brain
For B1, the “stoichiometry N” value in data set [3] is 2.

B2: endogenous KIF1A in murine cortical neurons (natural protein, UniProt P33173 1-1695, looked up)
chain: MAGASVKVAVRVRPFNSREMSRDSKCIIQMSGSTTTIVNPKQPKETPKSFSFDYSYWSHTSPEDINYASQKQVYRDIGEEMLQHAFEGYNVCIFAYGQTGAGKSYTMMGKQEKDQQGIIPQLCEDLFSRINDTTNDNMSYSVEVSYMEIYCERVRDLLNPKNKGNLRVREHPLLGPYVEDLSKLAVTSYNDIQDLMDSGNKPRTVAATNMNETSSRSHAVFNIIFTQKRHDAETNITTEKVSKISLVDLAGSERADSTGAKGTRLKEGANINKSLTTLGKVISALAEMDSGPNKNKKKKKTDFIPYRDSVLTWLLRENLGGNSRTAMVAALSPADINYDETLSTLRYADRAKQIRCNAIINEDPNNKLIRELKDEVTRLRDLLYAQGLGDITDMTNALVGMSPSSSLSALSSRAASVSSLHERILFAPGSEEAIERLKETEKIIAELNETWEEKLRRTEAIRMEREALLAEMGVAMREDGGTLGVFSPKKTPHLVNLNEDPLMSECLLYYIKDGVTRVGREDAERRQDIVLSGHFIKEEHCIFRSDSRGGGEAVVTLEPCEGADTYVNGKKVTEPSILRSGNRIIMGKSHVFRFNHPEQARQERERTPCAETPAEPVDWAFAQRELLEKQGIDMKQEMEQRLQELEDQYRREREEATYLLEQQRLDYESKLEALQKQMDSRYYPEVNEEEEEPEDEVQWTERECELALWAFRKWKWYQFTSLRDLLWGNAIFLKEANAISVELKKKVQFQFVLLTDTLYSPLPPDLLPPEAAKDRETRPFPRTIVAVEVQDQKNGATHYWTLEKLRQRLDLMREMYDRAAEVPSSVVEDCDNVVTGGDPFYDRFPWFRLVGRAFVYLSNLLYPVPLVHRVAIVSEKGEVKGFLRVAVQAISADEEAPDYGSGVRQSGTAKISFDDQHFEKFQSESCPVVGMSRSGTSQEELRIVEGQGQGADAGPSADEVNNNTCSAVPPEGLMDSPEKAALDGPLDTALDHLRLGSTFTFRVTVLQASSISAEYADIFCQFNFIHRHDEAFSTEPLKNTGRGPPLGFYHVQNIAVEVTKSFIEYIKSQPIVFEVFGHYQQHPFPPLCKDVLSPLRPSRRHFPRVMPLSKPVPATKLSTMTRPSPGPCHCKYDLLVYFEICELEANGDYIPAVVDHRGACMGTFLLHQGIQRRITVTLLHETGSHIRWKEVRELVVGRIRNTPETDEALIDPNILSLNILSSGYVHPAQDDRVFFGNDTRTFYQFEAAWDSSMHNSLLLNRVTPYREKIYMTLSAYIEMENCTQPAVITKDFCMVFYSRDAKLPASRSIRNLFGSGSLRATEGNRVTGVYELSLCHVADAGSPGMQRRRRRVLDTSVAYVRGEENLAGWRPRSDSLILDHQWELEKLSLLQEVEKTRHYLLLREKLETTQRPGPEVLSPASSEDSESRSSSGASSPLSAEGQPSPLEAPNERQRELAVKCLRLLMHTFNREYTHSHVCISASESKLSEMSVTLMRDPSMSPLGAATLTPSSTCPSLIEGRYGATDVRTPQPCSRPASPEPELLPELDSKKTPSPVRATETEKEPQRLLVPDIQEIRVSPIVSKKGYLHFLEPHTAGWAKRFVVVRRPYAYMYNSDKDTVERFVLNLSTAQVEYSEDQQAMLKTPNTFAVCTEHRGILLQANSDKDMHDWLYAFNPLLAGTIRSKLSRRRSAQMRV
notes: KIF1A, endogenous protein of murine cortical neurons; source: endogenous, detergent extract of murine cortical neurons
On to B2, for which the “stoichiometry N” value in data set [3] amounted to 2.

In general, stoichiometry N refers to a count of units in the complex or per binding partner.
